# Data: the supplement of paper PMC10567573
# B1: ZNF511 (parent)
# chain: FDALDDYEHHYHTLHGNVCSFCKR
# B2: C6orf223 (parent)
# chain: TLARMSRRTRGPVERAAAAAAAAA
# Variants of: B1
# Assay: protein stability index of a GFP-peptide fusion (GPS, HEK-293T) (PSI 1-6); higher = more stable
# Conditions: c terminus: a fixed tail appended
# 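Note: lentivirally expressed fusions sorted by FACS into six bins by GFP to DsRed ratio, PSI derived from sequencing read proportions per bin multiplied by bin number.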
row,Variant,protein stability index
1,A3R,3.81
2,A3W,2.87
3,A3E,4.08
4,A3I,3.31
5,A3D,3.72
6,A3Q,4.04
7,A3S,3.77
8,A3F,3.19
9,A3K,2.87
10,A3N,3.63
11,A3L,3.69
12,A3H,3.63
13,A3G,3.96
14,A3C,4.06
15,A3V,3.59
16,A3M,3.56
17,A3Y,3.54
18,A3P,3.7
19,A3T,3.56
20,D5P,4.11
21,D5C,4
22,D5H,3.9
23,D5G,4.12
24,D5F,2.5
25,D5W,2.98
26,D5S,3.24

row,Variant,protein stability index
1,D5A,4.03
2,D5K,3.09
3,D5N,3.98
4,D5Y,3.1
5,D5L,3.18
6,D5T,3.7
7,D5Q,3.86
8,D5E,3.77
9,D5I,3.45
10,D5M,3.14
11,D5V,3.54
12,D5R,3.5
13,L14C,4.85
14,L14D,4.33
15,L14F,3.59
16,L14W,3.17
17,L14V,4.53
18,L14M,3.99
19,L14H,4.24
20,L14N,4.18
21,L14A,3.98
22,L14Q,4.28
23,L14S,4.08
24,L14T,4.04
25,L14R,3.63
26,L14I,3.92

row,Variant,protein stability index
1,L14G,4.22
2,L14K,3.54
3,L14Y,3.81
4,L14P,4.71
5,L14E,4.48
6,D6A,3.54
7,D6Q,3.56
8,D6T,3.27
9,D6E,3.43
10,D6S,3.95
11,D6P,3.74
12,D6F,2.21
13,D6C,4.28
14,D6R,3.52
15,D6I,3.51
16,D6H,3.96
17,D6Y,2.59
18,D6N,3.91
19,D6K,2.97
20,D6V,2.98
21,D6W,1.67
22,D6G,3.69
23,D6M,3.03
24,D6L,4.68
25,V18F,2.97
26,V18C,3.66

row,Variant,protein stability index
1,V18D,4.12
2,V18E,4.36
3,V18A,3.7
4,G16C,3.42
5,G16L,2.98
6,G16Y,2.85
7,G16N,3.72
8,G16D,3.87
9,G16S,3.37
10,G16K,3.22
11,G16R,3.47
12,G16T,3.47
13,G16F,2.9
14,G16V,2.96
15,G16A,3.72
16,G16W,2.66
17,G16P,3.46
18,G16Q,3.3
19,G16E,3.75
20,G16H,3.5
21,G16I,3.15
22,G16M,3.15
23,H10P,2.76
24,H10W,3.04
25,H10Y,3.22
26,H10I,2.53

row,Variant,protein stability index
1,H10C,4.7
2,H10V,2.46
3,H10A,2.94
4,H10F,2.92
5,H10M,2.65
6,H10Q,3.48
7,H10G,3.73
8,H10D,3.85
9,H10K,3.24
10,H10N,3.37
11,H10L,2.62
12,H10T,3.4
13,H10R,3.59
14,H10E,3.74
15,H10S,3.06
16,H12E,2.95
17,H12T,3.29
18,H12Q,3.3
19,H12S,3.12
20,H12W,2.38
21,H12I,2.16
22,H12G,3.58
23,H12Y,2.48
24,H12L,2.71
25,H12F,2.9
26,H12K,2.58

row,Variant,protein stability index
1,H12M,2.73
2,H12R,3.36
3,H12P,3.31
4,H12V,3.27
5,H12N,3.27
6,H12A,2.96
7,H12C,4.18
8,H12D,4.41
9,F1L,4.31
10,F1P,4.04
11,F1R,5.08
12,F1Y,3.59
13,F1V,4.22
14,F1Q,4.11
15,F1C,4.38
16,F1D,4.31
17,F1G,3.74
18,F1M,4.59
19,F1A,4.38
20,F1E,4.64
21,F1K,4.28
22,F1S,4.51
23,F1T,4.28
24,F1W,3.7
25,F1I,3.43
26,F1H,4.46

row,Variant,protein stability index
1,F1N,4.75
2,H9I,3.39
3,H9W,2.67
4,H9M,3.44
5,H9C,4.26
6,H9K,3.43
7,H9G,4
8,H9Q,3.43
9,H9L,2.86
10,H9T,3.47
11,H9A,3.57
12,H9N,2.8
13,H9P,3.8
14,H9F,3.03
15,H9Y,2.65
16,H9S,3.44
17,H9E,3.71
18,H9R,4.1
19,H9V,3.18
20,H9D,3.69
21,N17S,3.98
22,N17W,2.6
23,N17Y,2.93
24,N17F,3.1
25,N17M,3.54
26,N17A,3.55

row,Variant,protein stability index
1,N17K,3.22
2,N17G,3.64
3,N17I,3.25
4,N17R,3.9
5,N17L,2.29
6,N17D,4.23
7,N17H,3.64
8,N17P,3.16
9,N17T,3.5
10,N17Q,2.24
11,N17C,2.5
12,N17E,3.96
13,N17V,3.67
14,H15P,3.3
15,H15F,2.26
16,H15A,3.86
17,H15K,3.61
18,H15Q,3.96
19,H15T,4.48
20,H15G,3.92
21,H15M,3.88
22,H15D,3.97
23,H15N,3.96
24,H15L,2.6
25,H15S,4.13
26,H15V,3.73

row,Variant,protein stability index
1,H15Y,3.23
2,H15W,3.3
3,H15R,3.83
4,H15I,3.55
5,H15E,4.36
6,H15C,3.89
7,L4D,4.2
8,L4H,4.48
9,L4A,4.1
10,L4T,4.44
11,L4Q,4.18
12,L4F,4
13,L4C,3.94
14,L4P,3.54
15,L4N,4.51
16,L4Y,3.16
17,L4R,3.93
18,L4V,3.75
19,L4M,3.81
20,L4I,3.56
21,L4E,4.41
22,L4S,4.6
23,L4K,4.39
24,L4G,4.11
25,L4W,3.43
26,D2C,3.17

row,Variant,protein stability index
1,D2S,3.51
2,D2N,3.06
3,D2V,2.06
4,D2K,3.78
5,D2E,4.27
6,D2I,3.62
7,D2F,2.48
8,D2A,3.4
9,D2Q,2.93
10,D2G,4.03
11,D2L,3.18
12,D2P,3.11
13,D2H,2.17
14,D2M,3.01
15,D2W,2.3
16,D2Y,3.1
17,D2R,3.19
18,D2T,3.18
19,T13L,3.24
20,T13F,2.65
21,T13C,4.5
22,T13A,3.82
23,T13D,3.91
24,T13W,2.78
25,T13S,3.54
26,T13N,3.56

row,Variant,protein stability index
1,T13V,3.77
2,T13K,3.4
3,T13H,4.17
4,T13P,4.19
5,T13Y,2.92
6,T13M,3.5
7,T13R,3.07
8,T13E,4.27
9,T13G,4.15
10,T13Q,3.66
11,T13I,3.19
12,E8I,2.51
13,E8Q,3.63
14,E8L,2.74
15,E8K,3.05
16,E8N,3.3
17,E8A,3.66
18,E8V,2.87
19,E8M,2.97
20,E8Y,2.79
21,E8H,3.63
22,E8S,3.35
23,E8T,3.67
24,E8W,2.69
25,E8F,2.57
26,E8C,4.43

row,Variant,protein stability index
1,E8D,3.82
2,E8P,3.81
3,E8R,3.55
4,E8G,3.55
5,Y7P,3.97
6,Y7A,3.4
7,Y7W,3.71
8,Y7V,3.98
9,Y7T,4.16
10,Y7R,4.23
11,Y7D,4.22
12,Y7K,4.44
13,Y7E,4.31
14,Y7I,4.18
15,Y7C,4.92
16,Y7G,4.16
17,Y7M,4.29
18,Y7Q,4.25
19,Y7S,4.05
20,Y7L,3.54
21,Y7H,4.43
22,Y7N,4.25
23,Y7F,3.24
24,Y11F,3.19
25,Y11A,4.39
26,Y11C,4.81

row,Variant,protein stability index
1,Y11R,4.61
2,Y11T,4.62
3,Y11M,4.45
4,Y11E,4.55
5,Y11N,4.38
6,Y11L,4.05
7,Y11K,4.28
8,Y11Q,4.93
9,Y11D,4.64
10,Y11W,2.34
11,Y11H,4.14
12,Y11S,4.14
13,Y11P,3.22
14,Y11I,4.2
15,Y11G,4.01
16,Y11V,4.49

# Variants of: B2
# Assay: as above
# Conditions: c terminus: a fixed tail appended
row,Variant,protein stability index
1,A24P,2.23
2,A24F,2.35
3,A24H,4.49
4,A23T,4.46
5,A23W,2.18
6,A23Y,3.26
